Results from patent publication US20210353712A1, “METHODS OF DIAGNOSING AND TREATING VASCULAR ASSOCIATED MACULOPATHY AND SYMPTOMS THEREOF” (University of Utah Research Foundation, priority 2011, published 2021).

Test system: DQ elastin
Assay: In vitro elastin degradation assay
Format: biochemical
Procedure: Therefore, studies were performed to determine whether HTRA1 degrades elastin, a major component of Bruch's membrane. Recombinant HTRA1 was incubated with dye-labeled elastin at 37° C. for two hrs and the fluorescence of the released elastin peptides was monitored at 513 nm. […] In an additional positive control assay, HTRA1 elastase activity was measured by fluorescence using various concentrations of elastase enzyme starting with 0.04 ng/well of porcine pancreatic elastase and 100 ng/well of Protealmmun HtrA1. DQ Elastin substrate was 25 ug/ml.
Recombinant HtrA1 protein expressed and purified from Sf9 cells was purchased from Protealmmun (Cat. #30600103). The HtrA1 elastase activity was measured using a fluorescent EnzChekElastase Assay Kit from Invitrogen (Cat. #E12056) using the protocol provided, except substrate concentration was 12.50 ? g/mL. HtrA1 concentration was titrated from 200-12.5 ng/well in two-fold dilutions. Activity was measured in 30-minute increments for a total of 2 hours.
The explanation for the elastin degradation in both the Bruch's membrane and the choroid vessels in the HTRA1 mice is that the protease activity of overexpressed HTRA1, which is secreted from RPE, caused the degeneration. Since HTRA1 was not known to have elastase activity, an in vitro elastin degradation assay was performed using DQ elastin, a soluble elastin labeled with quenched BODIPY FL dye, as a substrate. Purified recombinant human HTRA1 degraded elastin with a specific activity of 4.4±0.8 u/mg (n=3). […] To eliminate the possibility that the depletion of the elastic layers of the choroidal vessels and Bruch's membrane was the result of downregulation of elastin expression, we analyzed the protein level of soluble elastin in the RPE/choroid of hHTRA1^+ and WT mice by western blot. […] This is similar to what has been observed in human donors with AMD and with aberrant choriocapillaris lobules.

Substance	Degradation of dye-labeled elastin (37° C. for two hrs, fluorescence at 513 nm)	Elastase activity, times less than porcine pancreas elastase (DQ elastin substrate) [times]	Elastase specific activity (DQ elastin substrate) [u/mg]
recombinant human HTRA1: purified recombinant human HTRA1 serine protease	degraded dye-labeled elastin	~30	4.4±0.8
porcine pancreas elastase: reference elastase enzyme [reference compound]	–	–	135±5.5
